T1: His-tagged cynomolgus monkey PTK7 protein (cynomolgus monkey, UniProt A0A2K5VNI5 39-712)
T1 construct: Bought protein; also called cPTK7-His; ACRO Biosystems Cat# PT7-C52H3; not shown: His tag
T1 sequence: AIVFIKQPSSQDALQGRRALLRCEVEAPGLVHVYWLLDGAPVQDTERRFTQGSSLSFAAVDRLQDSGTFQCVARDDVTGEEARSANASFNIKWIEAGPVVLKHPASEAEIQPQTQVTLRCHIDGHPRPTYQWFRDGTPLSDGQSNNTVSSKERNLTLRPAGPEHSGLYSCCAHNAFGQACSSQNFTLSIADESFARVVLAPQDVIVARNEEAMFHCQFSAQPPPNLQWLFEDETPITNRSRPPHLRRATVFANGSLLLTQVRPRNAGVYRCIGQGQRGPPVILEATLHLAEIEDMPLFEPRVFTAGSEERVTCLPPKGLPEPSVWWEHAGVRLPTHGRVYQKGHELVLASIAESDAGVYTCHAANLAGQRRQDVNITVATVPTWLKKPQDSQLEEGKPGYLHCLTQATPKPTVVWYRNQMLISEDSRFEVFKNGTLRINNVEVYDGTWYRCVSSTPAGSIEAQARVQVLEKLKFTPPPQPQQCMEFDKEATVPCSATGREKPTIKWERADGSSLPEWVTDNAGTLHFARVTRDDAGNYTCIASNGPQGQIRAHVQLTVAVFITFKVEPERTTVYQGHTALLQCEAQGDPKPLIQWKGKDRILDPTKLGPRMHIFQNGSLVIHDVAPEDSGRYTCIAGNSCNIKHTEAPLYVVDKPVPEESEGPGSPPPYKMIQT

T2: His-tagged dog PTK7 protein (dog, UniProt Q13308 31-703 (human entry))
T2 construct: also called dPTK7-His
T2 chain: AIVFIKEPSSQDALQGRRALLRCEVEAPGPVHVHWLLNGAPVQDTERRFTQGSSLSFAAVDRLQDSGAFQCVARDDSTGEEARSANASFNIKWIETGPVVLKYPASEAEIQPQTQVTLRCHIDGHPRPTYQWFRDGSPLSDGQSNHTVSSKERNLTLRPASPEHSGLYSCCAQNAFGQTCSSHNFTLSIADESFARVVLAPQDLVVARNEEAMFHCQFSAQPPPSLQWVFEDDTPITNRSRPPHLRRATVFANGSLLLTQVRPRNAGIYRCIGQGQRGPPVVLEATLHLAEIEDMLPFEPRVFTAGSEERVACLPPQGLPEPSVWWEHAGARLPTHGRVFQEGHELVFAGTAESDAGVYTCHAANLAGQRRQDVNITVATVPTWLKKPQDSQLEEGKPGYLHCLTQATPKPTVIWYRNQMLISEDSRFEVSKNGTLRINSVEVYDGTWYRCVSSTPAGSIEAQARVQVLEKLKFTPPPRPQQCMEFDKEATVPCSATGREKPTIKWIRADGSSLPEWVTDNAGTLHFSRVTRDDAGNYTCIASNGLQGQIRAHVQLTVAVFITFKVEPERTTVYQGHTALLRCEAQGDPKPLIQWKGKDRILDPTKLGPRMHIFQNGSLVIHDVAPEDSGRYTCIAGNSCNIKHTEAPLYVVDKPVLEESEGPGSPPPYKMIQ

T3: His-tagged human TROP2 protein (human, UniProt P09758 27-274)
T3 construct: Bought protein; also called hTROP2-His; ACRO Biosystems Cat# TR2-H5223; not shown: His tag
T3 sequence (looked up): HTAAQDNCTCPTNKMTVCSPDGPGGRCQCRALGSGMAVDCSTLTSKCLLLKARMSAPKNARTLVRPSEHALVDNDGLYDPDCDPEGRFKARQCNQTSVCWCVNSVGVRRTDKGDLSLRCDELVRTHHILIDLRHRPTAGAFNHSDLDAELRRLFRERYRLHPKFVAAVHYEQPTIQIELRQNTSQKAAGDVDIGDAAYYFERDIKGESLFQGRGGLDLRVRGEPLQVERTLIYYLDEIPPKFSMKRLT

T4: His-tagged human PTK7 protein (human, UniProt Q13308 31-704)
T4 construct: Bought protein; also called hPTK7-His; not shown: His tag
T4 sequence: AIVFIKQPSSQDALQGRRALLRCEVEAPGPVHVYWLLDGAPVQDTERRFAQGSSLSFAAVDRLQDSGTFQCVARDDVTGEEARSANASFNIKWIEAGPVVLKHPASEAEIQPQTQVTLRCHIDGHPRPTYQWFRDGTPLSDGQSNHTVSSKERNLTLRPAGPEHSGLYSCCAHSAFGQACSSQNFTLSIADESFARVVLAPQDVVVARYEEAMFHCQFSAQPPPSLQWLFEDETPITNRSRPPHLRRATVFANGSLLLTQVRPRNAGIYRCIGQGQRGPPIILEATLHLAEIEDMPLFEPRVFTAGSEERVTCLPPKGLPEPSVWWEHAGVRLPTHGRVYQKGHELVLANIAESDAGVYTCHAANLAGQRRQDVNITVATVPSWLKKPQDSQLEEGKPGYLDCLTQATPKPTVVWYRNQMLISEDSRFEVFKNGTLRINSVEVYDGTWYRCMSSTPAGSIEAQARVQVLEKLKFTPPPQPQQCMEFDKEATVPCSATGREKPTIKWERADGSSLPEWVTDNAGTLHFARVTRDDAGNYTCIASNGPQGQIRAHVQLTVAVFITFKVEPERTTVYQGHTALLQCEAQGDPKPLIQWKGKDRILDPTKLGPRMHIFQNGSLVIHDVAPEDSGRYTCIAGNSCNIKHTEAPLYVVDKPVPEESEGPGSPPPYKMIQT

T5: His-tagged monkey TROP2 protein (cynomolgus monkey; Rhesus …, UniProt A0A5F8AGB8 27-274)
T5 construct: also called cTROP2-His; ACRO Biosystems Cat# TR2-R52H3
T5 sequence: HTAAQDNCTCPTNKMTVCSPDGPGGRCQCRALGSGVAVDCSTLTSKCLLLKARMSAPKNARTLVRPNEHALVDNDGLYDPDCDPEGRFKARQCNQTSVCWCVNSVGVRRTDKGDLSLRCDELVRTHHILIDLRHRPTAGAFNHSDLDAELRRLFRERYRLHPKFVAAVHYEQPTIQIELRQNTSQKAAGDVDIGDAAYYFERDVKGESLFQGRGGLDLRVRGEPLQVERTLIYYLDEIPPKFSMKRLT


Legend:
Assay in all cases: SPR Biacore 8K, Ab on Protein A chip
[1] = target: T1, His-tagged cynomolgus monkey PTK7 …
Experimental: (§1) The affinity of the anti-PTK7/TROP2 bispecific antibodies to His-tagged human TROP2 protein (hTROP2-His, ACRO Biosystems Inc., Cat #: TR2-H5223), His-tagged […] monkey TROP2 protein (cTROP2-His, ACRO Biosystems Inc., Cat #: Cat: TR2-R52H3), His-tagged dog TROP2 protein (dTROP2-His, ACRO Biosystems Inc., Cat #: TR2-C52H4), hPTK7-His, cPTK7-His and dPTK7-His were measured by surface plasmon resonance (SPR) using Biacore™ (Biacore, INC, Piscataway N.J.) 8K biosensor equipped with pre-immobilized Protein A sensor chips.

[2] = target: T2, His-tagged dog PTK7 protein
Experimental: as §1

[3] = target: T3, His-tagged human TROP2 protein
Experimental: as §1

[4] = target: T4, His-tagged human PTK7 protein
Experimental: as §1

[5] = target: T5, His-tagged monkey TROP2 protein

| Kd [1] [nM] | koff [1] [s⁻¹] | kon [1] [M⁻¹ s⁻¹] | Kd [2] [nM] | koff [2] [s⁻¹] | kon [2] [M⁻¹ s⁻¹] | Kd [3] [nM] | koff [3] [s⁻¹] | kon [3] [M⁻¹ s⁻¹] | Kd [4] [nM] | koff [4] [s⁻¹] | kon [4] [M⁻¹ s⁻¹] | Kd [5] [nM] | koff [5] [s⁻¹] | kon [5] [M⁻¹ s⁻¹] | Binder |
| --- | --- | --- | --- | --- | --- | --- | --- | --- | --- | --- | --- | --- | --- | --- | --- |
| 5.2 | 0.000623 | 120000 | 16.7 | 0.00164 | 98300 | 3.23 | 0.00116 | 360000 | 3.14 | 0.000389 | 124000 | 3.66 | 0.00119 | 325000 | 3E6-18E9 (bispecific antibody, V domains shown, also called anti-PTK7/TROP2 bispecific antibody 3E6-18E9) VH 1: QVQLVESGAEVKKPGESLRISCRGSGYSFTSYWISWVRQMPGKGLEWMGRIDPSDSYTKYSPSFQGHVTISADKSISTAYLQWSSLKASDTAMYYCARRDGDYFDFDYWGQGTLVTVSS VH 2: QLQLQQSGPGLLKPSETLSLTCTVSGGSISSSYYFWGWIRQPPGKGLEWIGAIYYIGNTHYNPSLKSRVTISIDTSKNQFSLNLNSVTAADTAIYYCARYEDTWNWFDPWGQGTLVTVSS VL: not shown |
| 4.6 | 0.000522 | 114000 | 20.6 | 0.00197 | 95500 | 351 | 0.0455 | 130000 | 2.67 | 0.000369 | 138000 | 8.07 | 0.00284 | 352000 | 3E6-6F7 (bispecific antibody, V domains shown, also called anti-PTK7/TROP2 bispecific antibody 3E6-6F7) VH 1: QVQLVESGAEVKKPGESLRISCRGSGYSFTSYWISWVRQMPGKGLEWMGRIDPSDSYTKYSPSFQGHVTISADKSISTAYLQWSSLKASDTAMYYCARRDGDYFDFDYWGQGTLVTVSS VH 2: EVQLVQSGPGLVKPSETLSLTCTVSGGSIDSGYYYWGWIRQPPGKGLEWIGSIYYIGTTYYIPSLKSRVTISVDTSKNRFSLKLTSVTAADTAVYYCARQPITVAGHDAFDIWGQGTMVTVSS VL: not shown |
| 14.8 | 0.00173 | 117000 | 36.2 | 0.00426 | 118000 | 11.2 | 0.0025 | 224000 | 11.5 | 0.00139 | 121000 | 12.1 | 0.00252 | 209000 | 3C4-18F12 (bispecific antibody, V domains shown, also called anti-PTK7/TROP2 bispecific antibody 3C4-18F12) VH 1: QVQLEQSRAEVKKPGESLRISCKGSGYSFTSYWISWVRQMPGKGLEWMGRIDPSDSYTNYNPSFQGHVTISADKSISTAYLQWSSLKASDTAMYYCARRDGSYFDFDYWGQGTLVTVSS VH 2: QLQLKESGPGLVKPSETLSLTCTVSGGSISYYYWSWIRQPPGMGLEWIGNIYYSGDTNYNPSLRSRVTISIDMSKNQFSLRLNSVTAADTAVYYCARYDMFKWNYEAFDVWGQGTMVTVSS VL: not shown |
| 4.98 | 0.000649 | 130000 | 16.4 | 0.00172 | 105000 | 13.7 | 0.00244 | 178000 | 2.43 | 0.000329 | 135000 | 13.9 | 0.00231 | 166000 | 3E6-18F12 (bispecific antibody, V domains shown, also called anti-PTK7/TROP2 bispecific antibody 3E6-18F12) VH 1: QVQLVESGAEVKKPGESLRISCRGSGYSFTSYWISWVRQMPGKGLEWMGRIDPSDSYTKYSPSFQGHVTISADKSISTAYLQWSSLKASDTAMYYCARRDGDYFDFDYWGQGTLVTVSS VH 2: QLQLKESGPGLVKPSETLSLTCTVSGGSISYYYWSWIRQPPGMGLEWIGNIYYSGDTNYNPSLRSRVTISIDMSKNQFSLRLNSVTAADTAVYYCARYDMFKWNYEAFDVWGQGTMVTVSS VL: not shown |
| 17.4 | 0.00216 | 124000 | 52.5 | 0.006 | 114000 | 10.6 | 0.00419 | 394000 | 13.2 | 0.00152 | 115000 | 5.94 | 0.00179 | 301000 | 3C4-6F7 (bispecific antibody, human IgG1, kappa, Knobs-into-holes IgG1 with common light chain; also called anti-PTK7/TROP2 bispecific antibody 3C4-6F7) heavy 1: not shown heavy 2: EVQLVQSGPGLVKPSETLSLTCTVSGGSIDSGYYYWGWIRQPPGKGLEWIGSIYYIGTTYYIPSLKSRVTISVDTSKNRFSLKLTSVTAADTAVYYCARQPITVAGHDAFDIWGQGTMVTVSSASTKGPSVFPLAPSSKSTSGGTAALGCLVKDYFPEPVTVSWNSGALTSGVHTFPAVLQSSGLYSLSSVVTVPSSSLGTQTYICNVNHKPSNTKVDKKVEPKSCDKTHTCPPCPAPELLGGPSVFLFPPKPKDTLMISRTPEVTCVVVDVSHEDPEVKFNWYVDGVEVHNAKTKPREEQYNSTYRVVSVLTVLHQDWLNGKEYKCKVSNKALPAPIEKTISKAKGQPREPQVCTLPPSREEMTKNQVSLSCAVKGFYPSDIAVEWESNGQPENNYKTTPPVLDSDGSFFLVSKLTVDKSRWQQGNVFSCSVMHEALHNHYTQKSLSLSPGK light: not shown |

— patent US20260250421A1 (BIOCYTOGEN PHARMACEUTICALS BEIJING, published 2026)
